Test results published in PMC5386860, “Variants of the Sir4 Coiled-Coil Domain Improve Binding to Sir3 for Heterochromatin Formation in Saccharomyces cerevisiae” (G3: Genes|Genomes|Genetics, 2017).
Changes are numbered by the printed parent chain. Names and notes keep the numbering of the source. Values belong to the binder of their own block, whether it stands above or below them.

What was measured:
[1] = biological target: T1, Sir3 (464–978) (S. cerevisiae, UniProt P06701 464-978); experiment: SEC; proteins mixed in equimolar ratio, 40 min on ice; Superdex 200 Increase 3.2/300, isocratic flow, 4°; fractions on SDS-PAGE, Coomassie; settings: both partners purified
T1 construct: Purification according to Chang et al. (2003) and King et al. (2006); also called wild-type Sir3 fragment; source: E. coli BL21 Rosetta, purified (Ni-IDA, ion exchange, Superdex 200)
T1 sequence (P06701 464-978): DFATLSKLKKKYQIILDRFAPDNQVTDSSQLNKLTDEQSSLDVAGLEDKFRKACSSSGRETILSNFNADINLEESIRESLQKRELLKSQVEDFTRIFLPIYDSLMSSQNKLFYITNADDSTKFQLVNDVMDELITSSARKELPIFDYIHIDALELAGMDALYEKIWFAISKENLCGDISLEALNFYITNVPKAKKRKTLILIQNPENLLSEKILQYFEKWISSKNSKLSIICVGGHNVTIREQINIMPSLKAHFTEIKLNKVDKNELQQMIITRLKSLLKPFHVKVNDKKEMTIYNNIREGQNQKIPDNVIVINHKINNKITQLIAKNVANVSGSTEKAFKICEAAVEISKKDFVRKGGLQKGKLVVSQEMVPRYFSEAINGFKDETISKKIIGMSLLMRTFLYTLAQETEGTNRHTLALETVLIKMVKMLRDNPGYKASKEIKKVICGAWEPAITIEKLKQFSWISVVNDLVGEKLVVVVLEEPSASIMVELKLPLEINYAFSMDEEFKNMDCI

[2] = biological target: T2, Sir3-1067(464–978) (S. cerevisiae, UniProt P06701 464-978, K657A | K658A); experiment: as above; settings: both partners purified
T2 construct: also called mutant Sir3 fragment; source: E. coli BL21 Rosetta, purified (Ni-IDA, ion exchange, Superdex 200)
T2 sequence (P06701 464-978 K657A/K658A): as the sequence (P06701 464-978) above, with K194A, K195A counted along it

binding result [1]: binds
B1: Sir4 (1217–1358) (domain or fragment, S. cerevisiae, UniProt P11978 1217-1358, looked up)
chain: SNTTEILTSVDVLGTHSQTGTQQSNMYTSTQKTELEIDNKDSVTECSKDMKEDGLSFVDIVLSKAASALDEKEKQLAVANEIIRSLSDEVMRNEIRITSLQGDLTFTKKCLENARSQISEKDAKINKLMEKDFQVNKEIKPY
notes: source: E. coli BL21 Rosetta, purified (Ni-NTA, Superdex 75)

binding result [2]: binds
B2: Sir4-ETK (1217–1358) (domain or fragment, S. cerevisiae, UniProt P11978 1217-1358, looked up)
chain: B1 chain with E94V, T98S, K109R
notes: also called Sir4-E1310V, T1314S, K1325R coiled-coil fragment; source: E. coli BL21 Rosetta, purified (Ni-NTA, Superdex 75)
